Experimental data published in patent US20130089516.
Residue numbers refer to the chain shown, from its start.

Assays:
[1] = molecular target: T1, mIL-2/MMP1cs/4x linker/mIL-2Rα + 6His (UniProt P04351)
T1 sequence: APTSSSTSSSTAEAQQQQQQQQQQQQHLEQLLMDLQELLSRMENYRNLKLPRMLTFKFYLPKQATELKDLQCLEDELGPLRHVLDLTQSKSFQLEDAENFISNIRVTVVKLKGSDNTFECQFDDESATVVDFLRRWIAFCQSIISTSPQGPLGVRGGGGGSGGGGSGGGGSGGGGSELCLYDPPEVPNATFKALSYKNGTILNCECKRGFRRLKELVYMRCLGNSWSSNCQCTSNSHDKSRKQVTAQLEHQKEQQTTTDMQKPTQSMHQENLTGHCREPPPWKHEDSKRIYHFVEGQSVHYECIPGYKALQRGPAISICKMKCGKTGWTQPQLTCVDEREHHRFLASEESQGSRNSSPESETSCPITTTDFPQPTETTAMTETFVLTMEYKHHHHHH

[2] = molecular target: T2, mIL-2/MMP2cs/4x linker/mIL-2Rα + 6His (UniProt P04351)
T2 sequence: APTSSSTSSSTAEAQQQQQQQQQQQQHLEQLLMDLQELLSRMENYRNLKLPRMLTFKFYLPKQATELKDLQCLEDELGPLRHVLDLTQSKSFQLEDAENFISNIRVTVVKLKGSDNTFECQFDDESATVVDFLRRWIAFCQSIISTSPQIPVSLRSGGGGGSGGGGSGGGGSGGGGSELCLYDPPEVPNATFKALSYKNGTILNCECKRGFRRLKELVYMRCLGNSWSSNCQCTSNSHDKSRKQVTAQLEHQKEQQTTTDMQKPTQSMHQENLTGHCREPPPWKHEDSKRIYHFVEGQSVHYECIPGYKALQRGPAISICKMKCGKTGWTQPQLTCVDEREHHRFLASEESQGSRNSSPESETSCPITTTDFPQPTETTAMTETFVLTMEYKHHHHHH

[3] = molecular target: T3, mIL-2/MMP3-2cs/4x linker/mIL-2Rα + 6His (UniProt P04351)
T3 sequence: T2 sequence with I150V, V152L, R155Y

[4] = molecular target: T4, mIL-2/MMP4-1cs/4x linker/mIL-2Rα + 6His (UniProt P04351)
T4 sequence: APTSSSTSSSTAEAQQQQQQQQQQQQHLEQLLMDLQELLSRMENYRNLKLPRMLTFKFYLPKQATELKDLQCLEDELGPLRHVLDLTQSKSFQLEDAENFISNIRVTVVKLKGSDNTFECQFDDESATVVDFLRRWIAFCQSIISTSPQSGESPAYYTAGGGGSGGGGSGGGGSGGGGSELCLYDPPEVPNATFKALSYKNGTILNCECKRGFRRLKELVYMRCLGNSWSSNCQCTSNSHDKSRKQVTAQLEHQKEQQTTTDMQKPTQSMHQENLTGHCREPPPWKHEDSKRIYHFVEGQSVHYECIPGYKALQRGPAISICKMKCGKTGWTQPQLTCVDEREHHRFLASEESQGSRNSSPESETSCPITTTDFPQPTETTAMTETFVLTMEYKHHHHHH

[5] = molecular target: hIL-2/PSAcs/2x linker/scFv + 6His (UniProt P60568)
[6] = molecular target: mIL-2/PSAcs/2x linker/mIL-2Rα (UniProt P04351)
[7] = molecular target: mIL-2/PSAcs/4x linker/mIL-2Rα (UniProt P04351)
[8] = molecular target: mouse IL-2/PSAcs/Mip-1α fusion protein (UniProt P04351)

Sequence of matrix metalloproteinase 2 (MMP2), APMA-activated (R & D Systems) (P08253 110-660): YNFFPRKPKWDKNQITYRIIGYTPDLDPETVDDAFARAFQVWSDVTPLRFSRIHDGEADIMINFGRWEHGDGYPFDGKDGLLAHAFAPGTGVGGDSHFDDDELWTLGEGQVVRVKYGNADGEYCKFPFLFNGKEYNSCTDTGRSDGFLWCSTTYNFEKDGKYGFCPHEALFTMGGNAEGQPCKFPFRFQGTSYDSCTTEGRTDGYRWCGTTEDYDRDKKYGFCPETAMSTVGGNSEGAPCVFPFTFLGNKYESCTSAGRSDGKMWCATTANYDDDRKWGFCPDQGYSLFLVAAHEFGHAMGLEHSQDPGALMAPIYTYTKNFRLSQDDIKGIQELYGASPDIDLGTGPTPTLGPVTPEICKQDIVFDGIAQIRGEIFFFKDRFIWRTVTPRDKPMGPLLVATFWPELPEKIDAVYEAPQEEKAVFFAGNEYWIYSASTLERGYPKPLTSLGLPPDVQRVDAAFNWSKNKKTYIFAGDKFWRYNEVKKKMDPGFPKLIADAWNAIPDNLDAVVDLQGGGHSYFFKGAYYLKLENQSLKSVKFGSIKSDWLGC
Sequence of hIL-2/PSAcs/2x linker/scFv + 6His (P60568 whole entry, looked up): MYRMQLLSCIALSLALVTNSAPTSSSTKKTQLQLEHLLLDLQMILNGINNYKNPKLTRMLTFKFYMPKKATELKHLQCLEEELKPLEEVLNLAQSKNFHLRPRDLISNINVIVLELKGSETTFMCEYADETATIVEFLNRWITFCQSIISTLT

matrix metalloproteinase 2 (MMP2), APMA-activated (R & D Systems)
cleavage by activated MMP2, immunoblot [1]: These cleavage sites were also capable of being cleaved using activated MMP2 and MMP9
cleavage by activated MMP2, immunoblot [2]: These cleavage sites were also capable of being cleaved using activated MMP2 and MMP9
cleavage by activated MMP2, immunoblot [3]: These cleavage sites were also capable of being cleaved using activated MMP2 and MMP9
cleavage by MMP2, anti-IL-2 immunoblot [4]: the fusion protein can be cleaved by MMP2 or MMP9

matrix metalloproteinase 9 (MMP9), APMA-activated (R & D Systems)
cleavage by activated MMP9, immunoblot [1]: These cleavage sites were also capable of being cleaved using activated MMP2 and MMP9
cleavage by activated MMP9, immunoblot [2]: These cleavage sites were also capable of being cleaved using activated MMP2 and MMP9
cleavage by activated MMP9, immunoblot [3]: These cleavage sites were also capable of being cleaved using activated MMP2 and MMP9
cleavage by MMP9, anti-IL-2 immunoblot [4]: the fusion protein can be cleaved by MMP2 or MMP9

prostate specific antigen (PSA), purified (Cortex Biochem)
cleavage by PSA, anti-human IL-2 immunoblot [5]: the human IL-2/PSAcs/human scFv-2 fusion protein can be cleaved by PSA
cleavage by PSA, anti-IL-2 immunoblot [6]: Immunoblot analyses revealed that the fusion proteins could be cleaved by PSA
cleavage by PSA, anti-IL-2 immunoblot [7]: Immunoblot analyses revealed that the fusion proteins could be cleaved by PSA
cleavage by PSA, anti-IL-2 immunoblot [8]: the IL-2/Mip1α fusion protein could be cleaved by PSA
